Laboratory results: patent publication US20250057968A1, “ANTI-DLL3 ANTIBODY AND PHARMACEUTICAL USE THEREOF, AND ANTIBODY-DRUG CONJUGATE CONTAINING ANTI-DLL3 ANTIBODY” (Jiangsu Hengrui Pharmaceuticals Co., Ltd., priority 2021, published 2025)

B1: hAb100L1H2 (antibody, human IgG1, kappa, V domains shown)
VH: EVQLVESGGGLVKPGGSLRLSCAASGFTFSDSGMHWIRQAPGKGLEWVAYISSGSSTIHYADTVKGRFTISRDNAKNSLYLQMNSLRAEDTAVYYCASPLYYYGRSYNAVAYWGQGTTVTVSS
VL: DIQMTQSPSSLSASVGDRVTITCHASQNINVWLSWYQQKPGKVPKLLIYKASDLHTGVPSRFSGSGSGTDFTLTISSLQPEDVATYYCQQGQSYPLTFGGGTKVEIKR
B2: hAb100L2H1 (antibody, human IgG1, kappa, V domains shown)
VH: EVQLVESGGGLVKPGGSLRLSCAASGFTFSDSGMHWIRQAPGKGLEWVSYISSGSSTIHYADTVKGRFTISRDNAKNSLYLQMNSLRAEDTAVYYCASPLYYYGRSYNAVAYWGQGTTVTVSS
VL: DIQMTQSPSSLSASVGDRVTITCHASQNINVWLSWYQQKPGKIPKLLIYKASDLHTGVPSRFSGSGSGTDFTLTISSLQPEDVATYYCQQGQSYPLTFGGGTKVEIKR
B3: hAb100L2H3 (antibody, human IgG1, kappa, V domains shown)
VH: EVQLVESGGGLVKPGGSLRLSCAASGFTFSDSGMHWIRQAPGKGLEWVAYISSGSSTIHYADTVKGRFTISRDNAKNSLYLQMNSLRAEDTAVYYCASPLYHYGRSYNAVAYWGQGTTVTVSS
VL: DIQMTQSPSSLSASVGDRVTITCHASQNINVWLSWYQQKPGKIPKLLIYKASDLHTGVPSRFSGSGSGTDFTLTISSLQPEDVATYYCQQGQSYPLTFGGGTKVEIKR
B4: hAb100L2H4 (antibody, human IgG1, kappa, V domains shown)
VH: EVQLVESGGGLVKPGGSLRLSCAASGFTFSDSGMHWIRQAPGKGLEWVAYISSGSSTIHYADTVKGRFTISRDNAKNSLYLQMNSLRAEDTAVYYCASPLYYYGRSYNGVAYWGQGTTVTVSS
VL: DIQMTQSPSSLSASVGDRVTITCHASQNINVWLSWYQQKPGKIPKLLIYKASDLHTGVPSRFSGSGSGTDFTLTISSLQPEDVATYYCQQGQSYPLTFGGGTKVEIKR
B5: hAb100L2H2 (antibody, human IgG1, kappa, V domains shown)
VH: EVQLVESGGGLVKPGGSLRLSCAASGFTFSDSGMHWIRQAPGKGLEWVAYISSGSSTIHYADTVKGRFTISRDNAKNSLYLQMNSLRAEDTAVYYCASPLYYYGRSYNAVAYWGQGTTVTVSS
VL: DIQMTQSPSSLSASVGDRVTITCHASQNINVWLSWYQQKPGKIPKLLIYKASDLHTGVPSRFSGSGSGTDFTLTISSLQPEDVATYYCQQGQSYPLTFGGGTKVEIKR
B6: hAb100L1H4 (antibody, human IgG1, kappa, V domains shown)
VH: EVQLVESGGGLVKPGGSLRLSCAASGFTFSDSGMHWIRQAPGKGLEWVAYISSGSSTIHYADTVKGRFTISRDNAKNSLYLQMNSLRAEDTAVYYCASPLYYYGRSYNGVAYWGQGTTVTVSS
VL: DIQMTQSPSSLSASVGDRVTITCHASQNINVWLSWYQQKPGKVPKLLIYKASDLHTGVPSRFSGSGSGTDFTLTISSLQPEDVATYYCQQGQSYPLTFGGGTKVEIKR
B7: hAb100L1H3 (antibody, human IgG1, kappa, V domains shown)
VH: EVQLVESGGGLVKPGGSLRLSCAASGFTFSDSGMHWIRQAPGKGLEWVAYISSGSSTIHYADTVKGRFTISRDNAKNSLYLQMNSLRAEDTAVYYCASPLYHYGRSYNAVAYWGQGTTVTVSS
VL: DIQMTQSPSSLSASVGDRVTITCHASQNINVWLSWYQQKPGKVPKLLIYKASDLHTGVPSRFSGSGSGTDFTLTISSLQPEDVATYYCQQGQSYPLTFGGGTKVEIKR

Legend:
[1] = target: T1, human DLL3 (ACRO, DLL3-H52H4) (human, UniProt Q9NYJ7 27-479); assay: SPR (Biacore 8K), antibody captured on Protein A chip, 1:1 fit
T1 construct: bought antigen of the Biacore assay; construct not described
T1 sequence (looked up): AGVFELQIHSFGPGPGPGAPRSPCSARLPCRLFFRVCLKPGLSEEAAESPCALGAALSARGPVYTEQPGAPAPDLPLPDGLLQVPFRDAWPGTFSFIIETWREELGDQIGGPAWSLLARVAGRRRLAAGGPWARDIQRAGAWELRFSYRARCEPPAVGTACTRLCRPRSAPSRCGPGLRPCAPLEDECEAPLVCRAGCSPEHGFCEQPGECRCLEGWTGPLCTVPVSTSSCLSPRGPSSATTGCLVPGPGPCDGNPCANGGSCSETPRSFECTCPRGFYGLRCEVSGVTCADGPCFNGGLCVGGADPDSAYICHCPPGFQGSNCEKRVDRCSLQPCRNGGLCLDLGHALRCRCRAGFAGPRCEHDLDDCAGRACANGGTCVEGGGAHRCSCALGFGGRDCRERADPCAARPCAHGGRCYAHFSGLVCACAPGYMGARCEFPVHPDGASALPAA
Excerpt: Test antibodies were affinity-captured with a Protein A biosensor chip (Cat. #29127556, Cytiva) for 18 seconds, and then the antigens human DLL3 (ACRO, DLL3-H52H4), cynomolgus monkey DLL3 (KACTUS, DLL-RM103), and mouse DLL3 (KACTUS, DLL-MM103) were allowed to flow over the surface of the chip for 180 seconds, followed by 600 seconds of dissociation. Reaction signals were detected in real time using a Biacore 8K (Cytiva) instrument to obtain association and dissociation curves. After the dissociation in each experimental cycle, the biosensor chip was washed and regenerated with a 10 mM glycine-hydrochloric acid solution (pH 1.5) (Cat. #BR-1003-54, Cytiva). A 1:1 model was fit to the data. The results are shown in Table 12-1, Table 12-2, and Table 12-3.

[2] = target: T2, Human DLL3 full-length protein on cells (human, UniProt Q9NYJ7 27-618); assay: FACS on DLL3/H82 cells
T2 construct: H1184 and DMS53 express DLL3 themselves; The cell line is named under assay; also called H1184 cells; DLL3/H82
T2 sequence: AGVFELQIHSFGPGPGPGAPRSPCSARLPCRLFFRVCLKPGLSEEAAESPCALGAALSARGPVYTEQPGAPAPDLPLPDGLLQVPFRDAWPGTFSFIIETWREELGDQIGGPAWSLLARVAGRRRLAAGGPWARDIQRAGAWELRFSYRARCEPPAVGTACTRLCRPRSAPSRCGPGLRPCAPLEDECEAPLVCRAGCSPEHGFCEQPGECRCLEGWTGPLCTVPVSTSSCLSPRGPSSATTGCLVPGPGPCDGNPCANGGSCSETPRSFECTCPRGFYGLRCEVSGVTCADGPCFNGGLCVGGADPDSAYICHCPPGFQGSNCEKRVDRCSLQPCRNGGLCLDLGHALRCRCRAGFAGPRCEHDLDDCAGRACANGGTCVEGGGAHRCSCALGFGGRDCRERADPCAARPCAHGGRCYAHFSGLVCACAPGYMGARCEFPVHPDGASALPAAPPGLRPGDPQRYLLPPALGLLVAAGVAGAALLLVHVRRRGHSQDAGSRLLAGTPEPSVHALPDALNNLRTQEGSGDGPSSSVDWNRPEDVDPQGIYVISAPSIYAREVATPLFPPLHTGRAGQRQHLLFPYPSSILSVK
Description: Cells of the DLL3-expressing small cell lung cancer cell lines H1184 (ATCC, Cat. No. CRL-5858), DLL3/H82, cynoDLL3/CHO-s, and RatDLL3/CHO-s were suspended at 1×10^6/mL in FACS buffer (1% BSA+pH 7.4 PBS), and the cell suspensions were added to a 96-well round-bottom plate (Corning, 3795) at 100 μL/well. The plate was centrifuged at 300 g for 5 min, and the supernatant was removed. Different concentrations of test antibodies were added at 100 μL/well. The plate was incubated in the dark in a refrigerator at 4° C. for 1 h. After 3 washes by centrifugation at 300 g, working concentrations of APC anti-human IgG Fc (BioLegend, 410712) or PE F(ab′)2-goat anti-human IgG (invitrogen, H10104) were added. The plate was incubated in the dark in a refrigerator at 4° C. for 40 min. After 3 washes by centrifugation at 300 g, the geometric mean fluorescence intensity was measured on an Invitrogen flow cytometer, and the EC50 values of the antibodies in binding to DLL3-expressing cells were calculated.

Binder | Kd [1] | koff [1] | kon [1] | EC50 [2] | Emax [2]
B1 | 0.467 nM | 0.000365 s⁻¹ | 781000 M⁻¹ s⁻¹ | 0.3 nM | 14800
B2 | 1.1 nM | 0.000629 s⁻¹ | 572000 M⁻¹ s⁻¹ | 0.29 nM | 14400
B3 | 0.664 nM | 0.000268 s⁻¹ | 404000 M⁻¹ s⁻¹ | 0.3 nM | 14800
B4 | 1 nM | 0.000655 s⁻¹ | 652000 M⁻¹ s⁻¹ | 0.32 nM | 13200
B5 | 0.437 nM | 0.00037 s⁻¹ | 848000 M⁻¹ s⁻¹ | 0.16 nM | 14800
B6 | 0.729 nM | 0.000254 s⁻¹ | 348000 M⁻¹ s⁻¹ | 0.22 nM | 14900
B7 | 0.424 nM | 0.000352 s⁻¹ | 832000 M⁻¹ s⁻¹ | 0.25 nM | 14900
